In publication PMC9541495, “Understanding the interaction of 14‐3‐3 proteins with hDMX and hDM2: a structural and biophysical study” (The Febs Journal, 2022):
[ ]: non-standard residue; d: D form. pS = N[C@@H](COP(=O)(O)O)C(=O)O; FAM = 5,6-carboxyfluorescein; Ahx = NCCCCCC(=O)O

T1: 14‐3‐3η (human, UniProt Q04917 1-246)
T1 construct: 14-3-3 eta, human, full-length protein from the pProEx HTb-His-14-3-3 construct; Captured on an NTA chip in SPR; source: E. coli BL21(DE3), purified (Ni2+-NTA, dialysis)
T1 sequence (looked up): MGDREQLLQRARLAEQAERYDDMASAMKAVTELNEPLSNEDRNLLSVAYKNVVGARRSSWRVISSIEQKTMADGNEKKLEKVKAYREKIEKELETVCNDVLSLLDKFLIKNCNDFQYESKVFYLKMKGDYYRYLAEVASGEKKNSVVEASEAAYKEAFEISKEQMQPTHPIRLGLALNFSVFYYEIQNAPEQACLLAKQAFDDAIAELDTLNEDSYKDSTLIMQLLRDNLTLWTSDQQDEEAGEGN

T2: 14‐3‐3ζ (human, UniProt P63104 1-245)
T2 construct: 14-3-3 zeta, human, full-length protein from the pProEx HTb-His-14-3-3 construct; Written as the protomer; tag removal is told only for the ∆C proteins; source: E. coli BL21(DE3), purified (Ni2+-NTA, dialysis)
T2 sequence (looked up): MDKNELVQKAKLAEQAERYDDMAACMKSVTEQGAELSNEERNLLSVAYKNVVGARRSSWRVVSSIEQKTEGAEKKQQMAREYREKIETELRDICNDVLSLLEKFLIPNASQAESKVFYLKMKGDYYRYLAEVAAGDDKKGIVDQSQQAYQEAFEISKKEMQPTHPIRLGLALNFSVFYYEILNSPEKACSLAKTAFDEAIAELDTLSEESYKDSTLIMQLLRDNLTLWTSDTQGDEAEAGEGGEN

B1: FAM‐Ahx‐hDM2_(160‐171) ^pSer166 (peptide)
peptide: {FAM-Ahx}-SRRRAI[pS]ETEEN-NH2
notes: hDM2 (human double minute 2 protein), human, residues 160-171; Tracer form used in the FA assays; also called hDM2_(160‐171) ^Ser166; source: synthetic peptide (Fmoc SPPS, HPLC purified)
B2: FAM‐Ahx‐hDMX_(361‐374) ^pSer367 (peptide)
peptide: {FAM-Ahx}-DCRRTI[pS]APVVRPK-NH2
notes: Tracer form used in the FA assays; source: synthetic peptide (Fmoc SPPS, HPLC purified)
B3: FAM‐Ahx‐hDM2_(180‐192) ^pSer186 (peptide)
peptide: {FAM-Ahx}-QRKRHK[pS]DSISLS-NH2
notes: hDM2 (human double minute 2 protein), human, residues 180-192; Tracer form used in the FA assays; source: synthetic peptide (Fmoc SPPS, HPLC purified)
B4: FAM‐Ahx‐hDMX_(335‐349) ^pSer342 (peptide)
peptide: {FAM-Ahx}-SKLTHSL[pS]TSDITAI-NH2
notes: hDMX (human double minute 4 protein, hDM4), human, residues 335-349; Tracer form used in the FA assays; source: synthetic peptide (Fmoc SPPS, HPLC purified)

target: T1, 14‐3‐3η; experiment: fluorescence polarisation; fluorescence anisotropy, direct titration: 14-3-3 protein titrated (1/2 dilution series) against 50 nM FAM-Ahx tracer peptide; 10 mM HEPES, 150 mM NaCl, 0.1% Tween 20, 0.1% BSA, pH 7.4; 384 well plates, triplicates; protein concentration as 14-3-3 monomer; 1:1 fit, biphasic curves fitted as two separate 1:1 events (Kd1, Kd2); conditions: both partners purified

| Kd [µM] | Binder |
| --- | --- |
| 10.2 ± 0.3 | B1 |
| 0.099 ± 0.005 | B2 |
| 31.6 ± 1.9 | B3 |
| 20 ± 1.2 | B4 |

target: T2, 14‐3‐3ζ; experiment: as above; conditions: both partners purified

| Kd [µM] | Binder |
| --- | --- |
| 19.6 ± 0.2 | B1 |
| 0.92 ± 0.03 | B2 |
| 166 ± 5.6 | B3 |
| 95.8 ± 3.6 | B4 |
